What was measured:
E. coli GlpT = target: T1, E. coli GlpT (Escherichia coli, UniProt P08194); assay: GlpT-dependent export from feeder vesicles, read by LC-MS of DOPA formed in utilizer vesicles; assay type: biochemical; details: antiport with external Pi, 50 mM KPi pH 7.0, 30 °C; indirect read-out
T1 construct: plasmid pBADmycHisB-glpT, expressed in E. coli MC1061, Ni-Sepharose and size exclusion in DDM, coreconstituted with L. sakei ArcD in vesicles; 54 kDa
T1 sequence (P08194 1-452): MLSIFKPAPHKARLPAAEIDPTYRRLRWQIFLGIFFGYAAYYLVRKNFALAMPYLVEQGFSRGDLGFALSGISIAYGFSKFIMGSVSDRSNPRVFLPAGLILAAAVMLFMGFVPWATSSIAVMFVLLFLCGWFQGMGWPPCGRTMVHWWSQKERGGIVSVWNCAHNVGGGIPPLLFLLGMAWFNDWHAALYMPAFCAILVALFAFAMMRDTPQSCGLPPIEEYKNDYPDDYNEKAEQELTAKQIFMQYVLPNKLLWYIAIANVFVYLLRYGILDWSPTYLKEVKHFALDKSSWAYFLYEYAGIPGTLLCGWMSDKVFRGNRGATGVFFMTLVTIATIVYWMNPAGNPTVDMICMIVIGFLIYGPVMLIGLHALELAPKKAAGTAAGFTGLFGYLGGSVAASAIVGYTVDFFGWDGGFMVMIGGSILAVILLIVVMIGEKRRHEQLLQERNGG

[1] = substrate: N=C(N)NCCC[C@H](N)C(=O)O; assay: radiolabelled uptake into L-ornithine-loaded proteoliposomes, Michaelis-Menten fit; assay type: biochemical, Latilactobacillus sakei; details: 50 mM KPi pH 7.0, 2 mM DTT, 30 °C, internal L-ornithine 10 mM, external L-arginine 1-100 μM, labelled compound
Procedure: radiolabelled uptake into L-ornithine-loaded proteoliposomes, Michaelis-Menten fit on L. sakei ArcD | the affinity constant (KM) and turnover number (kcat) were determined for the L. sakei antiporter

[2] = substrate: N=C(N)NCCC[C@H](N)C(=O)O; assay: cells, lysate or membranes; set-up: species or system L. lactis JP9000 ΔarcD1ΔarcD2; Radiolabeled L-arginine uptake in L-ornithine-loaded whole cells, filtration and scintillation counting; details: pH 7.0; 20.0 °C
Procedure: The arcD and arcE genes were cloned into nisin A-based expression vectors and flanked by a 10× His-tag at either the N- or the C-terminus. The constructs were transformed into L. lactis JP9000 ΔarcD1ΔarcD2[24] and the expression was optimized. […] All of these proteins were tested for L-arginine transport activity in vivo (Figure S4). […] By assuming a similar level of expression as the original ArcD2, ArcD from L. sakei would have a 10-fold higher turnover number and was therefore chosen for further in vitro characterization (Table S4). The genes encoding arcD/E were PCR-amplified from the source DNA templates with Phusion high-fidelity DNA polymerase (Thermo Fisher Scientific) and customized primers (Eurofins Genomics, Table S3). Next, fragment exchange (FX)[36] was exploited to clone the genes of interest into pNZ-N(His) or pNZ-C(His) vectors suitable for overexpression in L. lactis strains. According to the procedure, the PCR amplification products were first cloned into a sequencing vector (pINITIAL). To this end, both the insets and the backbone (1:5 molar ratio) were digested with 2.5 U of SapI (New England Biolabs) for 1 h at 37 °C, followed by a heat inactivation step at 60 °C for 20 min. Ligation was carried out by adding 5 U of T4 ligase (New England Biolabs) and incubating for 1 h at RT. […]

[3] = substrate: N=C(N)NCCC[C@H](N)C(=O)O; assay: cells, lysate or membranes; details: pH 7.0; 20.0 °C

Question: For `O=P(O)(O)OC[C@H](O)CO` [glycerol 3-phosphate], which “GlpT-dependent export from feeder vesicles, read by LC-MS of DOPA formed in util” value (E. coli GlpT) is on record?
Answer: Its value is “only when the feeder vesicles were equipped with the glycerol 3-phosphate exporter GlpT”.

B1: L. sakei ArcD (Latilactobacillus sakei) (protein)
chain: MTEEKPAKKIGLLALIALVISSSIGSGVFGLTSDLASASAPGPVLIAWVIVGFGILMLALSLNNLLMKEPELEGIFSYAEKGFGPFAGFISGWGYWLSAWLGNVTFATILMSALGYFFPIFKSRQNLPSILVASVLSWSLTYFVNRGVEGAAAINTLVTICKLIPLFVFIIFGIVLFKGHLFTQAFWNNMSSSFVAGDVMSQIKNCMMVMMWVFVGIEGASMLSARAEKKSDAGKATILGLVSLLAIYILASVLPYGYLTQDQLASIKQPAMLYIFEQMVGTWGGYFIGVGLIISILGAWLSWTMLPAETMLLMAKQNLLPAYFGRVNKKKAPTFALVVTAGLIQVFLFTLLFTTKAYNFAYSLCTASIIVCYMLVAAYQIKYSWAHLQEKGNRQQLLIGVLALLFEIAGILMAGVSYLLLCFIAYIPGIYFYGRARKNNGHQHFLSKGEWLITTIIVIGAIIGIWLVVSGKIVI
notes: N-terminal 10x His-tag (plasmid pNZarcD-LS), expressed in L. lactis JP9000 delta-arcD1 delta-arcD2, purified in DDM, reconstituted in DOPE/DOPG/DOPC liposomes; 54 kDa
Question: B1 was tested. Which Km [1] did it give?
Answer: The Km was 12.2 ± 1.5 µM.

Question: What about the kcat [1] of the same molecule?
Answer: The kcat was 5.8 ± 1.2 s⁻¹.

Question: What about the Km [2] of the same molecule?
Answer: Its Km is 26.8 µM.

B2: P. aeruginosa ArcD (Pseudomonas aeruginosa PAO1) (protein)
chain: MSQESSQKLRLGALTALVVGSMIGGGIFSLPQNMAASADVGAVLIGWAITAVGMLTLAFVFQTLANRKPELDGGVYAYAKAGFGDYMGFSSAWGYWISAWLGNVGYFVLLFSTLGYFFPIFGKGDTVAAIVCASVLLWALHFLVLRGIKEAAFINTVTTVAKVVPLFLFILICLFAFKLDIFTADIWGKSNPDLGSVMNQVRNMMLVTVWVFIGIEGASIFSSRAEKRSDVGKATVIGFITVLLLLVLVNVLSMGVMTQPELAKLQNPSMALVLEHVVGHWGAVLISVGLLISLLGALLSWVLLCAEIMFAAAKDHTMPEFLRRENANQVPANALWLTNICVQVFLVVVFFTSGDPDGMDPYTKMLLLATSMILIPYFWSAAYGLLLTLKGETYENDARERSKDLVIAGIAVAYAVWLLYAGGLKYLLLSALLYAPGAILFAKAKHEVGQPIFTGIEKLIFAAVVIGALVAAYGLYDGFLTL
Question: Which Km [3] does the source give for B2 here?
Answer: The Km was 7.5 µM.
